The nature of the data set: protein stability index of a GFP-peptide fusion (yeast GPS) (PSI 1-4); higher = more stable; sorted into four equal gates, so the index is relative within each strain. The method in brief:
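Sequencing reads from sorted gates were used to score each peptide. The library consisted of tiled 17-residue yeast protein peptides fused downstream of GFP on a Cherry-expressing plasmid, pooled and carried in yeast. Mid-log cultures in leucine-free medium were split into four equal gates by GFP/Cherry ratio, and each gate's plasmids were PCR-amplified and Illumina-sequenced. The protein stability index adds up, over all gates, the read frequency multiplied by the gate number.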

± gives the uncertainty stated by the source.

Regarding ETTTQFKATHILDFGPG [FAS1], the protein stability index by setting is: (doa10∆) 2.44 ± 0.081; (pdr5∆) 2 ± 0.094; (san1∆) 2.16 ± 0.084; (ubr1∆) 2.25 ± 0.054.

The sequence ETYVASYVVPRLYLKDQ [ECM29] had a protein stability index (doa10∆) of 2.46 ± 0.1, a protein stability index (pdr5∆) of 1.93 ± 0.088, a protein stability index (san1∆) of 1.91 ± 0.24 and a protein stability index (ubr1∆) of 2.32 ± 0.054.

Take EVCAKMPNIELYLKVIP [SSN2]: the protein stability index is, setting by setting: (doa10∆) 2.71 ± 0.047; (pdr5∆) 2.51 ± 0.045; (san1∆) 2.48 ± 0.052; (ubr1∆) 2.26 ± 0.039.

In the case of EVDSASDFISKLEYPHT [RPN3], the protein stability index reads like this: (doa10∆) 2.96 ± 0.087; (pdr5∆) 3.09 ± 0.087; (san1∆) 2.93 ± 0.075; (ubr1∆) 3.02 ± 0.079.

For EVEEDDEDDDQPMISPD [SWI3], the protein stability index is 3.21 ± 0.099 (doa10∆), 3.45 ± 0.056 (pdr5∆), 3.33 ± 0.046 (san1∆) and 3.15 ± 0.06 (ubr1∆).

Regarding EVGMKVQSGQIYINKSV [RET1], the protein stability index stood at 2.83 ± 0.074 (doa10∆), 3.05 ± 0.073 (pdr5∆), 2.6 ± 0.082 (san1∆) and 3.08 ± 0.069 (ubr1∆).

With EVLCSRIIEKSVRRSGA [RRP45], the protein stability index by setting is: (doa10∆) 2.38 ± 0.066; (pdr5∆) 3.21 ± 0.076; (san1∆) 2.41 ± 0.1; (ubr1∆) 2.94 ± 0.1.

Regarding EVLLAGFGRKGKAKGDI [RPS23A], the protein stability index came out at 3.41 ± 0.099 (doa10∆), 3.24 ± 0.093 (pdr5∆), 3.41 ± 0.045 (san1∆) and 3.22 ± 0.071 (ubr1∆).

Take EVRDATLNNIFRFDSIQ [GRR1]: the protein stability index is, setting by setting: (doa10∆) 3.18 ± 0.26; (san1∆) 3.38 ± 0.2; (ubr1∆) 3.24 ± 0.24.

As for EVRILPRQRMEEVVSND [PRP8], the protein stability index is 2.52 ± 0.11 (doa10∆), 2.73 ± 0.084 (pdr5∆), 2.69 ± 0.064 (san1∆) and 2.57 ± 0.084 (ubr1∆).

For the sequence EVRQETQPKAEATQDDD [NUT1], the protein stability index was determined as 3.08 ± 0.13 (doa10∆), 3.18 ± 0.071 (pdr5∆), 3.4 ± 0.065 (san1∆) and 3.16 ± 0.074 (ubr1∆).

Take EVSMNSIFAMGLCGAGT [RPN1]: the protein stability index (doa10∆) is 1.68 ± 0.047, the protein stability index (pdr5∆) was 1.61 ± 0.058, the protein stability index (san1∆) was found to be 1.49 ± 0.091 and the protein stability index (ubr1∆) was 1.23 ± 0.052.

In the case of EVSQFLIENGASVRIKD [NAS6], the protein stability index worked out at 3.08 ± 0.21 (doa10∆), 2.39 ± 0.2 (pdr5∆) and 2.71 ± 0.12 (ubr1∆).

For EVVSEAINIMNRSNDAL [FAS2], the protein stability index by setting is: (doa10∆) 3.32 ± 0.12; (pdr5∆) 3.44 ± 0.13; (san1∆) 3.44 ± 0.049; (ubr1∆) 3.31 ± 0.16.

On to EVWSVSWNLTGTILSSA [YGL100W/SEH1], for which the protein stability index is, setting by setting: (doa10∆) 1.7 ± 0.07; (pdr5∆) 1.5 ± 0.083; (san1∆) 1.33 ± 0.15; (ubr1∆) 1.63 ± 0.061.

Take EVYRTSLNTKKNEKLIL [SMC3]: the protein stability index runs as follows: (doa10∆) 1.75 ± 0.082; (pdr5∆) 1.96 ± 0.074; (san1∆) 2.73 ± 0.13; (ubr1∆) 2.35 ± 0.1.

Regarding EVYTLVDSQGLPYNWDA [ARP7], the protein stability index (doa10∆) is 3.31 ± 0.2, the protein stability index (pdr5∆) is 3.56 ± 0.2, the protein stability index (san1∆) stood at 2.85 ± 0.14 and the protein stability index (ubr1∆) is 3.22 ± 0.15.

For the sequence EWDMLNVEEEQIVPYIE [BRR2], the protein stability index runs as follows: (doa10∆) 3.2 ± 0.17; (pdr5∆) 3.41 ± 0.18; (san1∆) 3.02 ± 0.24; (ubr1∆) 3.45 ± 0.29.

For the sequence EWKSNHKKKRSNAAGAD [SRB8], the protein stability index is, setting by setting: (doa10∆) 1.33 ± 0.13; (pdr5∆) 1.72 ± 0.2; (san1∆) 1.5 ± 0.17; (ubr1∆) 1.83 ± 0.054.

For EYEEWQKSVSLLSSESN [YDL116W/NUP84], the protein stability index is, setting by setting: (doa10∆) 2.93 ± 0.055; (pdr5∆) 3.02 ± 0.077; (san1∆) 2.84 ± 0.053; (ubr1∆) 2.73 ± 0.054.

Regarding FCGKKTVKRGAAGIWTC [RPL43A], the protein stability index runs as follows: (doa10∆) 1.79 ± 0.072; (pdr5∆) 1.88 ± 0.071; (san1∆) 2.19 ± 0.11; (ubr1∆) 1.92 ± 0.059.

Take FDDACNQIWNIALNLAS [SSN2]: the protein stability index was 3.01 ± 0.15 (doa10∆), 2.88 ± 0.078 (pdr5∆), 2.91 ± 0.2 (san1∆) and 2.62 ± 0.14 (ubr1∆).

In the case of FDDIFQVSEVDPGRYNK [RPB8], the protein stability index by setting is: (doa10∆) 3.06 ± 0.14; (pdr5∆) 2.75 ± 0.12; (san1∆) 2.57 ± 0.18; (ubr1∆) 2.95 ± 0.097.

FDKDLERDTFSDFTFPE [DIS3]: the protein stability index is, setting by setting: (doa10∆) 2.11 ± 0.15; (pdr5∆) 1.88 ± 0.13; (san1∆) 1.24 ± 0.17; (ubr1∆) 1.32 ± 0.15.

The values are drawn from the supplement of paper PMC9732359.
